The text below walks through data of patent US20210380703A1 (RIGEL PHARMACEUTICALS, published 2021).

Numbering of substitutions follows the chain as printed.

B1: 369_C04 (antibody, V domains shown)
VH: EVQLLESGGGLVQPGGSLRLSCAASGFTFSSYSMNWVRQAPGKGLEWVSNINYNGGYTGYADSVKGRFTISRDNSKNTLYLQMNSLRAEDTAVYYCARSANWHDTALDYWGQGTLVTVSS
VL: DIQMTQSPSSLSASVGDRVTITCRASQSILTYVNWYQQKPGKAPKLLIYTTTSLHSGVPSRFSGSGSGTDFTLTISSLQPEDFATYYCQQSYNNPLTFGGGTKVEIK
B2: 369_E02 (antibody, V domains shown)
VH: B1 VH with S30D, S33G
VL: B1 VL with L30V, T31S, T50A, L54R, N93D
B3: 369_F06 (antibody, V domains shown)
VH: B1 VH with S30D, S31D, S49A, N50G, T58K
VL: B1 VL with L30V, T31S, L47V, T50A, T51A, L54R, H55A, N93D, N94S
B4: 369_D02 (antibody, V domains shown)
VH: B1 VH with S31D, G55S
VL: B1 VL with T31S, V33L, L47V, T50A, T51V, L54R, H55A, N93D, N94T
B5: 369_D12 (antibody, V domains shown)
VH: B1 VH with S30D, S49A, N50G, G55S, G59S
VL: B1 VL with T31S, V33L, T50A, T51A, H55A, N93D, N94T
B6: 369_F10 (antibody, V domains shown)
VH: B1 VH with S30D, S33G, G55S, T58K, G59S
VL: B1 VL with L30V, V33L, T50A, T51V, L54R, H55A, N93D, N94L
B7: 369_G12 (antibody, V domains shown)
VH: B1 VH with S49A
VL: B1 VL with L47V, T50A, T51A, L54R, Y92D, N94T
B8: 370_D04 (antibody, V domains shown)
VH: B1 VH with S30D, S49A, G55S, T58K
VL: B1 VL with V33L, L47V, T50A, T51A, L54R, H55A, N93D
B9: 370_C08 (antibody, V domains shown)
VH: B1 VH with S33G, S49A, N50G, T58K
VL: B1 VL with L30S, T31N, V33L, T50A, T51V, L54R, H55A, N93D, N94S
B10: 369_D04 (antibody, V domains shown)
VH: B1 VH with S30D, S33G, N50G, G59S
VL: B1 VL with T31S, L47V, T50A, T51A, L54R, H55A, N94L
B11: 370_A12 (antibody, V domains shown)
VH: B1 VH with S33G, S49A, N50G, G59S
VL: B1 VL with V33L, T50A, T51A, H55A, N93D, N94S
B12: 369_F03 (antibody, V domains shown)
VH: B1 VH with S31D, S33G, N50G, G55S, G59S
VL: B1 VL with L30V, T31S, T50A, T51A, H55A, N93D, N94S
B13: 369_G11 (antibody, V domains shown)
VH: B1 VH with S49A, G55S, T58K
VL: B1 VL with V33L, T50A, T51A, H55A, N93E, N94S
B14: 369_G04 (antibody, V domains shown)
VH: B1 VH with S30D, N50G, G59S
VL: B1 VL with T50A, L54R, N93E, N94T
B15: 369_D01 (antibody, V domains shown)
VH: B1 VH with S31D, S33G, S49A, N50S
VL: B1 VL with V33L, T50A, T51A, L54R, H55A, N93S
B16: 369_F01 (antibody, V domains shown)
VH: B1 VH with S33G, N50G, T58K, G59S
VL: B1 VL with T50A, T51A, L54R, H55A, N93E, N94L
B17: 369_E11 (antibody, V domains shown)
VH: B1 VH with S33G, G59S
VL: B1 VL with L30I, T31S, V33L, T50A, T51A, H55A, N93D, N94T
B18: 369_F11 (antibody, V domains shown)
VH: B1 VH with S30D, S33G, G55S, T58K, G59S
VL: B1 VL with L30I, T31S, V33L, T50A, T51A, L54R, H55A, N93D, N94L
B19: 369_H06 (antibody, V domains shown)
VH: B1 VH with S33G, S49A, T58K, G59S
VL: B1 VL with L30V, T31S, T50A, T51A, L54R, H55A, N93D, N94T
B20: 369_F02 (antibody, V domains shown)
VH: B1 VH with S33G, S49A, N50S, G55S, T58K, G59S
VL: B1 VL with L30V, T31S, V33L, L47V, T50A, T51A, L54R, H55A, N93D, N94T
B21: 370_C09 (antibody, V domains shown)
VH: B1 VH with S30D, S33G, N50G, G59S
VL: B1 VL with L30I, T31S, V33L, L47V, T50A, T51A, H55A, N93S, N94T
B22: 370_C03 (antibody, V domains shown)
VH: B1 VH with S33G, S49A, N50G, T58K
VL: B1 VL with V33L, T50Y, T51V, S53N, L54R, H55Q, N93S, N94S
B23: 369_H09 (antibody, V domains shown)
VH: B1 VH with S30D, S31D, N50G, G59S
VL: B1 VL with T31S, T50A, T51V, H55A, N93E, N94S
B24: 370_A01 (antibody, V domains shown)
VH: B1 VH with N50G, G55S, T58K, G59S
VL: B1 VL with L30S, V33L, L47V, T50A, T51A, L54R, H55A, N94L
B25: 370_C05 (antibody, V domains shown)
VH: B1 VH with S49A, N50G, G55S
VL: B1 VL with T31S, L47V, T50A, T51A, L54R, H55A, N94S
B26: 369_H05 (antibody, V domains shown)
VH: B1 VH with S33G, S49A
VL: B1 VL with L30V, T31S, T50A, T51A, L54R, H55A, N93S
B27: 370_A04 (antibody, V domains shown)
VH: B1 VH with S30D, N50G, G59S
VL: B1 VL with L30I, V33L, T50A, T51A, L54R, H55A, N93D
B28: 370_C01 (antibody, V domains shown)
VH: B1 VH with S30D, N50G, G55S
VL: B1 VL with V33L, L47V, T50A, T51A, H55A, N93D, N94T
B29: 369_G01 (antibody, V domains shown)
VH: B1 VH with G55S, T58K, G59S
VL: B1 VL with T31S, T50A, T51A, L54R, H55A, N93S, N94S
B30: 369_E12 (antibody, V domains shown)
VH: B1 VH with S33G, N35H, S49A, N50S, G55S, G59S
VL: B1 VL with L30I, T31S, V33L, T50A, T51A, L54R, H55A, N93E, N94S
B31: 369_G06 (antibody, V domains shown)
VH: B1 VH with S30D, S33G, S49A, N50G, G59S
VL: B1 VL with T31S, L47V, T50A, T51A, L54R, H55A, N93E
Note: test concentration or dose not given here.

Chain of Mouse ACVR2A (P27038 20-135 limits assumed): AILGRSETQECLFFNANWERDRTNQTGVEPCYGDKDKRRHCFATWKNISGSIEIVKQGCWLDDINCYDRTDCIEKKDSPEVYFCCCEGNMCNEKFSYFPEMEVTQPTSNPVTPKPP

In one assay the target is T1, Goat anti-Human Kappa.
T1 construct: Positive control of the ELISA; also called biotinylated goat anti-human kappa light chain
Kind of assay: ELISA, positive control. In outline: (§1)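 ELISA measured binding of ACVR2A-specific monoclonal antibodies to human and mouse ACVR2A. Biotinylated goat anti-human kappa light chain served as positive control and human Fc as negative control.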
B1 yielded an optical density of 2.46 OD.
Still for that read-out and setting: then B2, with 3.43 OD.
On the same count and under the same terms, then B3, with 3.51 OD.
Consider B4, for which the optical density came out at 3.53 OD.
Still for that read-out and setting: then B5, with 3.53 OD.
The molecule B6 gave an optical density of 3.67 OD.
On the same count and under the same terms, then B7, with 2.65 OD.
Still for that read-out and setting: then B8, with 3.6 OD; and B9, with 3.11 OD; and B10, with 3.59 OD.
Regarding B11, the optical density turned out to be 3.72 OD.
Molecule B12 returned an optical density of 3.44 OD.
B13 registered an optical density of 2.59 OD.
With B14, the optical density was 3.32 OD.
On the same count and under the same terms, then B15, with 3.63 OD; and B16, with 3.47 OD; and B17, with 3.69 OD.
Molecule B18 showed an optical density of 3.66 OD.
Still for that read-out and setting: then B19, with 3.5 OD; and B20, with 3.56 OD.
Still for that read-out and setting: then B21, with 3.48 OD; and B22, with 3.57 OD; and B23, with 3.51 OD.
In turn, B24 had an optical density of 3.62 OD.
B25 had an optical density of 3.56 OD.
On the same count and under the same terms, then B26, with 3.54 OD; and B27, with 3.48 OD; and B28, with 3.62 OD.
Regarding B29, the optical density was found to be 3.44 OD.
For B30, the optical density was found to be 3.67 OD.
Same read-out and setting: as for B31, the figure is 3.38 OD.

The next assay has as its target Mouse ACVR2A (mouse, UniProt P27038 20-135, limits assumed). In words: ELISA. In short, it runs like this:
as §1
Background: An ELISA detects its analyte on a solid surface through an enzyme-linked reagent.
Molecule B1 showed an optical density of 1.65 OD.
The molecule B2 yielded an optical density of 2.34 OD.
Same read-out and setting: then B3, with 3.07 OD.
On the same count and under the same terms, as for B4, the figure is 3.44 OD; as for B5, 3.1 OD.
Still for that read-out and setting: then B6, with 3.23 OD.
B7 yielded an optical density of 1.88 OD.
Same read-out and setting: then B8, with 3.74 OD; and B9, with 2.97 OD; and B10, with 2.97 OD.
On the same count and under the same terms, then B11, with 3.19 OD; and B12, with 2.75 OD; and B13, with 3.06 OD.
Same read-out and setting: then B14, with 2.69 OD; and B15, with 3.32 OD.
Take B16: the optical density stood at 3.42 OD.
Molecule B17 came in with an optical density of 3.2 OD.
The molecule B18 displayed an optical density of 3.37 OD.
The molecule B19 returned an optical density of 3.56 OD.
As for B20, the optical density came to 3.35 OD.
For B21, the optical density was found to be 2.25 OD.
In the case of B22, the optical density was determined as 3.77 OD.
Same read-out and setting: then B23, with 2.64 OD; and B24, with 2.96 OD.
The molecule B25 had an optical density of 3.55 OD.
Still for that read-out and setting: then B26, with 3.34 OD.
B27 returned an optical density of 2.74 OD.
Consider B28, for which the optical density worked out at 3.38 OD.
Molecule B29 had an optical density of 3.67 OD.
The same measure, in the same setting: as for B30, the figure is 2.69 OD.
B31 had an optical density of 2.91 OD.

In another assay the target is T2, Human ACVR2A (human, UniProt P27037 20-135, limits assumed).
T2 construct: also called activin receptor, type II A
T2 sequence (P27037 20-135 limits assumed): as the sequence (P27038 20-135 limits assumed) above, with R20K, I73V counted along it
In words: ELISA. In short, it runs like this: as §1
The molecule B1 had an optical density of 1.64 OD.
Same read-out and setting: then B2, with 2.14 OD; and B3, with 3.11 OD; and B4, with 3.29 OD.
Molecule B5 returned an optical density of 3.04 OD.
Consider B6, for which the optical density was 3.05 OD.
Same read-out and setting: then B7, with 1.77 OD; and B8, with 3.59 OD; and B9, with 2.73 OD.
Same read-out and setting: then B10, with 3.05 OD; and B11, with 3.06 OD; and B12, with 2.58 OD.
On the same count and under the same terms, then B13, with 3.03 OD.
As to B14, the optical density was 2.37 OD.
Same read-out and setting: as for B15, the figure is 3.13 OD; as for B16, 3.28 OD; as for B17, 2.89 OD.
Still for that read-out and setting: then B18, with 3.2 OD; and B19, with 3.23 OD.
The same measure, in the same setting: as for B20, the figure is 3.07 OD; as for B21, 1.97 OD; as for B22, 3.59 OD.
In turn, B23 displayed an optical density of 2.36 OD.
Same read-out and setting: as for B24, the figure is 2.86 OD; as for B25, 3.21 OD; as for B26, 3.25 OD.
In turn, B27 yielded an optical density of 2.57 OD.
For the molecule B28, the optical density is 3.29 OD.
The molecule B29 yielded an optical density of 3.57 OD.
In turn, B30 yielded an optical density of 2.46 OD.
B31 gave an optical density of 2.98 OD.
